Source: patent US20150361450, “VECTOR FOR THERAPY OF MITOCHONDRIAL DISEASE” (UNIVERSITE DE STRASBOURG, published 2015)

Target: preKARS2 (precursor of human mitochondrial lysyl-tRNA synthetase) (Homo sapiens, UniProt Q15046-2 Q15046-2:1-625)
Test: EMSA; 10 mM MgCl2, 30 C
Details: tags: C-terminal 6xHis, thrombin site and N-terminal 6xHis deleted, label: 5'-32P
Protocol: Purified RNA was dephosphorylated with alkaline phosphatase (Boehringer Mannheim) and labeled at the 59-end with c-32P-ATP using T4 polynucleotide kinase (Promega). The labeled RNA was denatured at 100° C. and then slowly cooled down to the room temperature. For RNA binding assays, the appropriate amount of protein and labeled RNA were mixed in […] of the buffer containing 20 mM Tris-HCl pH 7.5, 150 mM NaCl, 10 mM MgCl2, 5 mM DTT, 10% glycerol, 0.1 mg/ml BSA and incubated at 30° C. for 15 min. The mixture was separated by native 8% PAGE in […] buffer (pH 8.3) and 5% glycerol, followed by Typhoon-Trio (GE Healthcare) scanning and quantification as described in.

Sequence of preKARS2 (precursor of human mitochondrial lysyl-tRNA synthetase) (Q15046 other isoform, or with tags, fused parts or gaps): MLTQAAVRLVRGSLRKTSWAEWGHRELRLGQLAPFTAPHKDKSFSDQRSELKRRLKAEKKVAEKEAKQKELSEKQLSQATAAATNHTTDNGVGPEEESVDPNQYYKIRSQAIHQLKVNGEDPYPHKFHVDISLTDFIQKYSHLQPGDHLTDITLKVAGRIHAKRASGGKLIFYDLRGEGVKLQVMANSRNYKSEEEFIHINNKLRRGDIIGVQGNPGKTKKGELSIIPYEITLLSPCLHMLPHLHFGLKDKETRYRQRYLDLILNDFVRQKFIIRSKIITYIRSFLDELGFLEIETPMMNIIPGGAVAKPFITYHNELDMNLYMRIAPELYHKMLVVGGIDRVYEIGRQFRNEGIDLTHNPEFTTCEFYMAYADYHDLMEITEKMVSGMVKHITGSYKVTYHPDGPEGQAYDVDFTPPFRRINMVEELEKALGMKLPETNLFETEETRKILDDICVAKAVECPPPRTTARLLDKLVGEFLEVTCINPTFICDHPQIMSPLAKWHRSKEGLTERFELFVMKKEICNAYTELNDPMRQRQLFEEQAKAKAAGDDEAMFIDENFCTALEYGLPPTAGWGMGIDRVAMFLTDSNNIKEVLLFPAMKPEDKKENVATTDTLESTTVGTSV

Row | Binder | binding result (D-arm only, F-hairpin deleted) | binding result (F-hairpin only, D-arm deleted)
1 | GCGCAAUCGGUAGCGCCUCUUUACAGUGCUUAGUUCUC (ssRNA) [HD RNA] | no binding | –
2 | GGUCUUUACAGUGCUUACUUCUCGAGCCCCCUACAGGGCUCCA (ssRNA) [HF RNA] | – | no binding
